From publication PMC4159622

How the values were obtained:
[1] = target: FBXO11 (UniProt Q86XK2); assay: co-IP of alanine scanning mutants; settings: reference: wild type; sites S11
[2] = target: FBXO11 (UniProt Q86XK2); assay: co-IP with anti-HA; settings: reference: wild type; sites S11

Row | binding against the reference [1] | binding against the reference [2] | Substance
1 | lost |  | SNAIL (from UniProt O95863) S11A
2 |  | lost | SNAIL (from UniProt O95863) S11V
